Test [1] deals with T1, Atg3^FR (residues 86–159), the intrinsically disordered flexible region of yeast Atg3 (S. cerevisiae, UniProt P40344 86-159).
T1 chain: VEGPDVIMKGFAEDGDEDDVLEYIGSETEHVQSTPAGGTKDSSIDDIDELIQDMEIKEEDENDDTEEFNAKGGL
As to the kind of experiment: NMR; average over E123IR residues; Atg12–Atg5 with Atg16.

The target of test [2] is T2, Atg3^∆FR (yeast Atg3 lacking the flexible region) (S. cerevisiae, UniProt P40344 1-310, ∆FR (FR, residues 85–159)).
T2 sequence: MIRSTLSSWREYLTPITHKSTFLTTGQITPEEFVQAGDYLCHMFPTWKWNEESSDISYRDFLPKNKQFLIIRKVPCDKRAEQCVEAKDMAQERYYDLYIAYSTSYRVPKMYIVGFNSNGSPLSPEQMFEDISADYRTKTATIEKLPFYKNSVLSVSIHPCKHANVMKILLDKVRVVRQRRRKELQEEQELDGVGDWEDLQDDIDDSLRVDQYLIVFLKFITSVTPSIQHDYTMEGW
As to the kind of experiment: NMR.

Test [3] has as its target T2, Atg3^∆FR (yeast Atg3 lacking the …). As to the kind of experiment: NMR; average over E123IR residues.
Test [4] addresses T3, Atg12–Atg5 conjugate (His-Atg12 100–186 conjugated to Atg5 1–284), minimal yeast autophagy E3 (S. cerevisiae, UniProt P38316 100-186; Q12380 1-284, conjugated to Atg5 (Atg12–Atg5 conjugate) | conjugated to Atg12 (Atg12–Atg5 conjugate)).
T3 construct: Atg12, S. cerevisiae, residues 100–186; Atg5, S. cerevisiae, residues 1–284, untagged; Covalent conjugate formed in E. coli by co-expressed Atg7 and Atg10; No removal of the His tag is told; also called His-Atg12–Atg5; minimal yeast E3; source: E. coli BL21, co-expressed with Atg7 1–630 and Atg10; purified (Ni-NTA, cation exchange); not shown: His6, N-terminal, kept
T3 sequence (looked up) 1: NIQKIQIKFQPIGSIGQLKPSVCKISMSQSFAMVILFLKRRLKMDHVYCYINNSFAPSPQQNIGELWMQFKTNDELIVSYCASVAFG
T3 sequence (looked up) 2: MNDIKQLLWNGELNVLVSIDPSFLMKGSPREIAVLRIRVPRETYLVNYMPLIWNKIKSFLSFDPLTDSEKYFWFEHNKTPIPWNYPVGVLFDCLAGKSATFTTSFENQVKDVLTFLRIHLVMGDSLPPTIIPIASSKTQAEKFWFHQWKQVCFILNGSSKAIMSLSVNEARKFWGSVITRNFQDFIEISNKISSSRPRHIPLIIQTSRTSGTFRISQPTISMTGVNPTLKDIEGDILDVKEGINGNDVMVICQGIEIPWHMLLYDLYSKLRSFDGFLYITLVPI
As to the kind of experiment: NMR titration; 0.1 mM 15N-labeled Atg3^FR 86–159 titrated with 0–150 µM unlabeled Atg12–Atg5; [15N,1H] TROSY; 25 °C, 20 mM MES pH 6.5, 100 mM NaCl, 10% D2O. To be noted: both partners purified.

The target of test [5] is T3, Atg12–Atg5 conjugate (His-Atg12 100–186 …). As to the kind of experiment: SEC; purified His-Atg12–Atg5 combined with Atg16 1–46 in a 1:2 molar ratio, Superdex-200; peak fractions of the complex harvested. To be noted: both partners purified.

B1: Atg12–Atg5 conjugate (His-Atg12 100–186 conjugated to Atg5 1–284), minimal yeast autophagy E3 (complex)
chain 1: NIQKIQIKFQPIGSIGQLKPSVCKISMSQSFAMVILFLKRRLKMDHVYCYINNSFAPSPQQNIGELWMQFKTNDELIVSYCASVAFG
chain 2: MNDIKQLLWNGELNVLVSIDPSFLMKGSPREIAVLRIRVPRETYLVNYMPLIWNKIKSFLSFDPLTDSEKYFWFEHNKTPIPWNYPVGVLFDCLAGKSATFTTSFENQVKDVLTFLRIHLVMGDSLPPTIIPIASSKTQAEKFWFHQWKQVCFILNGSSKAIMSLSVNEARKFWGSVITRNFQDFIEISNKISSSRPRHIPLIIQTSRTSGTFRISQPTISMTGVNPTLKDIEGDILDVKEGINGNDVMVICQGIEIPWHMLLYDLYSKLRSFDGFLYITLVPI
modifications: conjugated to Atg5 (Atg12–Atg5 conjugate) | conjugated to Atg12 (Atg12–Atg5 conjugate)
Take B1: the Kd in test [1] amounted to 69 µM.

B2: Atg3^FR 86–159 mutant I132D, L135D, I136D (printed elsewhere as I136R) (domain or fragment)
chain: VEGPDVIMKGFAEDGDEDDVLEYIGSETEHVQSTPAGGTKDSSIDDDDEDDQDMEIKEEDENDDTEEFNAKGGL
B2 showed a Kd in test [2] of 994 µM.

B3: Atg3^FR (residues 86–159), the intrinsically disordered flexible region of yeast Atg3 (domain or fragment, S. cerevisiae, UniProt P40344 86-159, looked up)
chain: VEGPDVIMKGFAEDGDEDDVLEYIGSETEHVQSTPAGGTKDSSIDDIDELIQDMEIKEEDENDDTEEFNAKGGL
notes: Atg3 (autophagy E2), S. cerevisiae, flexible region, residues 86–159; 15N-labelled (or 13C,15N-labelled) for NMR; The introduction gives the FR as residues 85–159, the construct is 86–159; also called Atg3^FR 86–159; holds the Atg3^E123IR element; source: purified
Turning to B3, in test [3], the dissociation constant Kd is 238 µM. The binding result in test [4] is on record as “binds”.

B4: Atg16 (residues 1–46) (domain or fragment, S. cerevisiae, UniProt Q03818 1-46, looked up)
chain: MGNFIITERKKAKEERSNPQTDSMDDLLIRRLTDRNDKEAHLNELF
notes: Atg16, S. cerevisiae, residues 1–46; also called Atg16 1–46; source: purified
For B4, the binding result in test [5] is on record as “binds”.
